Results from PMC3883592.
pKd: −log10 of the molar value.

Biological target: mEPCR on mouse brain microvascular endothelial cells (bEND3) (mouse (endogenous in bEND3)) (UniProt Q64695)
Experiment: radioligand binding

Sequence of mEPCR on mouse brain microvascular endothelial cells (bEND3) (mouse (endogenous in bEND3)) (Q64695 18-242): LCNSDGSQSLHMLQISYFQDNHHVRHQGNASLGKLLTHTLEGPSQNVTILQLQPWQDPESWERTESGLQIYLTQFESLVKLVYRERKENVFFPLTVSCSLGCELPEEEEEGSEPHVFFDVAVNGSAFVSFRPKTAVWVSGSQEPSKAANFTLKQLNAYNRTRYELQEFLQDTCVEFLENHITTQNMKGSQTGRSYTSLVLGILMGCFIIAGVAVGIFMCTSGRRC

amount bound as percent of human APC at 50 nM | fold increase of binding with 1 mM Mg2+ over Ca2+ alone | pKd | Substance
30% | 3 fold | – | Mouse APC (enzyme)
– | 10 fold | 7.64 | Recombinant activated human protein C (Xigris) (enzyme)
